Results as given in patent US20180207259A1.

Biological target: 92UG037.8-gp140-Fd (HIV-1 primary isolate 92UG037.8 (clade A))
Test: surface plasmon resonance

Question: Which Kd does the source give for monoclonal antibody (mAb) 2G12 here?
Answer: Its Kd is 17.9 nM.
